{
  "source": "the nanobody polyreactivity screen of Harvey et al. (2022)",
  "data": [
    {"test": "yeast display, Sf9 membrane polyspecificity reagent, FACS + sequencing; frameworks hold sequencing errors", "procedure,_shortened": "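Nanobodies from a synthetic yeast display library (Saccharomyces cerevisiae BJ5465), induced 36–48 hours with galactose, were stained 1 hour at 4 °C with 10% biotinylated, detergent-solubilized Sf9 membrane reagent, enriched on streptavidin microbeads, then FACS-sorted. Anti-HA (expression) and streptavidin (reagent binding) fluorescence set low and high (top ~1%) gates. Polyreactivity labels come from the gate of origin. Genes were colony-PCR amplified, MiSeq 2 × 250 sequenced and filtered by CDR length.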", "values": [
      {"sequence": "QVQLVESGGGLVQAGGSLRLSCAASGSTFRYYAMGWYRQAPGKEREFVATINKSGGSTYYADSVKGRFTISRDNEKNTVYLQMNSLKPEDTAVYYGATRKSGGYRYDYWGQGTQVTVSS", "polyreactivity (PSR sort gate)": "high polyreactivity"},
      {"sequence": "QVHLVESGGGLVQAGGSLRLSCAASGIIFPSYVMGWYRQAPGKEWELVARISARGGRTYYADSVKGRFTISRDNAKNTVYLQMNSLKPEDTAVYYCAARWGITTWYDYWGQGTQVTVSS", "polyreactivity (PSR sort gate)": "high polyreactivity"},
      {"sequence": "QVQLVESGGGLVQAGGSLRLSCAASGSTFGYNARGWYRQAPGKEREFVARIRSSGSTTYADSVKGRFTISRDNAKNTVYLQMNSLKPEDTAVYYCAARRLYGYSPWVRFGSYDYWGQGTQVTVSS", "polyreactivity (PSR sort gate)": "high polyreactivity"},
      {"sequence": "QVQLVESGGGLVQAGGSLRLSCAASGNTFGYYAMGWYRQAPGKERELVAAITWNGDRTYYADSVKGRFTISRDNAKNTVYLQMNSLKPEDTAVYYCNKVNPYRHGYWGQGTQVTVSS", "polyreactivity (PSR sort gate)": "high polyreactivity"},
      {"sequence": "QVQLLESGGGLVQAGGSLRISCAASGSTFVRYPMGWYRQAPGKERELVAGISSGDRTYYADSVKGRFTISRDNAKNTVYLQMNSLKPEYTSVYYCNARPVYLLEGYYWGQGTQVTVSS", "polyreactivity (PSR sort gate)": "low polyreactivity"},
      {"sequence": "QVQLVESGGGLVQAGGSLRLSCAASGRIFAHYTMGWYRQAPGKERELVAAISIRGGRTNYTDSVKGRFTISRDNAKNTVYLQMNSLKPEDTAVYYCNARGARYYWYQLGHDYWGQGTQVTVSS", "polyreactivity (PSR sort gate)": "high polyreactivity"},
      {"sequence": "QVQLHESGGGLVQAGGGLRLSCAASGSISSTGFMGWYRQAPGKEREPVAAIAPGTTTYYADSVKGRFTISRDNAKNTVYLQMNSLRPEDTAVYDCADFTDNRVAFLYWGQGTQVTVSS", "polyreactivity (PSR sort gate)": "low polyreactivity"},
      {"sequence": "RVQLVESGGGLVHAGCSLRLSCAASGNTFWYNAMGWYRQAPGKVRELVAAISYSGGGTYYADSVKGRFTISRDNAKNTVYLQMNSLKPEDTAVYYCAADTLQRSFVLYDYWGHGTQVTVSS", "polyreactivity (PSR sort gate)": "high polyreactivity"},
      {"sequence": "QVQLVESGGGLVQAGGSLRLSCAASGSTFTDYAMGWYRQAPGKERELVASITSGGRTNYADSVKGRFTISRDNAKNTVYLQMNSLKPEDTAVYYCNASAWLVVARTRYGYWGQGTQVTVSS", "polyreactivity (PSR sort gate)": "low polyreactivity"},
      {"sequence": "QVQLVESGGGLVQAGGSLRLSCAASGRIFKRYAMGWYRQAPGKERELVAAITRSGGSMYYADSVKGRFTISRDNAKNTVYLQMNSLKPEDTAVYYCNKVYGPHPERAVYYEGDYWGQGTQVTVSS", "polyreactivity (PSR sort gate)": "high polyreactivity"},
      {"sequence": "QVQLVESGGGLVQAGGSLRLSCAASGSIFRLYTMGWYRQAPGKERELVAAISQSGGRTYYADSVKGRFTISRDNAKNTVYLQMNSLNPEDTAVYYCNAVGPYRPYGGQGAPYDYWGQGTQVTVSS", "polyreactivity (PSR sort gate)": "high polyreactivity"},
      {"sequence": "QVQLVESGGGLVQAGGSLRLSCAASGSIFYYYAMGWYRQAPGKERELVAAITVSGGRTYYADSVKGRFTISRDNAKNTVYLQMNSLKPEDTAVYYCAAQIYGKYDYWGQGTQVTVSS", "polyreactivity (PSR sort gate)": "low polyreactivity"},
      {"sequence": "QVQLVESGGGLVQAGGSLRLSCAASGFTLDWYAKGWYRQAPGKERELVAAISSSGRTNYADSVKGRFTISRDNAKNTVYLQMNSLKPEDTAVYYCNRDYPYIWHKGARYWHENDYWGQGTQVTVTS", "polyreactivity (PSR sort gate)": "low polyreactivity"},
      {"sequence": "QVQLVESGGGLVQAGGSLRLSCAASGFIFYLYAMGWYRQAPGKERELVASINVSGASTRYADSVKGRFTISRDNAKNTDYLQMNSLKPEDTAVYYCAAPSRYDYWGQGTQVTVSS", "polyreactivity (PSR sort gate)": "low polyreactivity"},
      {"sequence": "QVQLVESGGGLVQAGGSLRLSSAASGIIFPGYAMVWYRQAPGKERELVAAISSGGDTYYADSVKGRFTISRDNAKNTVYLQMNSLKPEDTGVYYCTAAQLSSDRTSNYGYYPWYEYWGQGTQVTVSS", "polyreactivity (PSR sort gate)": "low polyreactivity"},
      {"sequence": "QVQLVESGGGLVHAGGSLRLSCAASGSIYPSYGMGWYRQAPGKERELVARITSGGGTNYADSVKGRFTISRDNAKNTVYLQMNSLKPEDTAVYYCAAQSTTIEDGWYVEYNYWGQGTQVTVSS", "polyreactivity (PSR sort gate)": "high polyreactivity"},
      {"sequence": "QVQLVESGGGLVQAGGSLRLSCAASGLIFSSNAMGWYRQAPGKERELVAAISRRGANTYYADSVKGRFTISRDNAKNTVYLQMNSLKPQDTAVYYCAKRYVGRGTSYQDYYWGQGTQVTVSS", "polyreactivity (PSR sort gate)": "high polyreactivity"},
      {"sequence": "QVQLVESGGGLVQAGGSLRLSCAASGRTLSYNTMGWYRQAPGKEREFVAANTWSGGSTNYADSVKGRFTISRDNAKNTVYLQMNSLKPEDTAVYYCNADYLTVSWSIPEHVTVRLMYYWGQGTQVTVSS", "polyreactivity (PSR sort gate)": "low polyreactivity"},
      {"sequence": "QVQLVESGGGLVQAGGSLRLSCAASGYIFQDYAMGWYRQAPAKERELVARISAGGGRTYYADSVKGRFTISRENAMNTVYLQMNSLKPEDTAVYYCAAPLSYSWVYIVRYGYDYWGQGTQVTVSS", "polyreactivity (PSR sort gate)": "low polyreactivity"},
      {"sequence": "QVQLVESGGGLDQAGGSLRLSCAASGSTFVLNAMGWYRQAPGKERDLVAAITSNGGRTYYADSVKGRFTISRDNAKNTVYLQMNSLKPEDTAVYYCNAVKTHRVRVHGWDYGYWGQGTQVTVSS", "polyreactivity (PSR sort gate)": "high polyreactivity"},
      {"sequence": "QVQLVESGGGLVQAGGSLRLSCAASGITFGRNTMGWYRQAPGKERELVAAIDSGGNTYADSVKGRFTISRDNAKNTVYLQMNSLKPEDSAVYYCAVDGGEFSSYGYWGQGTQVTVSS", "polyreactivity (PSR sort gate)": "low polyreactivity"},
      {"sequence": "QVQLVESGGGLVQAGGSLRLICAASGFTLRHYAMGWSRQAPGKERELVAAITKSGSSTYYADSVKGRFTISRDNAKNTVYLQMNSLKPEDTAVYYCAKKTSYSYAFRYDYWGQGTQVTVSS", "polyreactivity (PSR sort gate)": "high polyreactivity"},
      {"sequence": "QVQLVESGGGLVQAGGSLRLICDASGSIFRYYAMGWYRQAPGKERELVARISWRAGSTYADSVKGRFTISRDYAKNTVYLQINSQKPEDTAVYYCNADAHKDSWVGTSEYEYWGQGTQVTVSS", "polyreactivity (PSR sort gate)": "high polyreactivity"},
      {"sequence": "QVQLVESGGGLVQAGGSLRLSCAASGSTFYWYAMGWYRQAPGKERELVASITRSGVRTYYADSVKGRFTISRDNAKNTVYLQMNSLKPEDTAVYYCAAERYYFPRSYRYGYWGQGTQVTVSS", "polyreactivity (PSR sort gate)": "low polyreactivity"},
      {"sequence": "QVQLVESGGGLVQAGGSLRLSCAASGFIFGANAMGWYRPAPGKERELVAAITWSAGRTYYADSVKGRFTISRVNAKNTVYLKMNSLKREDSAVYYCAKQRARQSPEVGYWGQGTQVTVSS", "polyreactivity (PSR sort gate)": "high polyreactivity"},
      {"sequence": "QDQLVESGGGLVQAGGSLRLSCAASGITSNPYDMGWYRQAAGKERELVAVITSGGSTSYADSVKGRFTISRDNAKNTVYLQLISLKREDTAVYYCNSVYAGWRGGNYWGQGTQVTVSS", "polyreactivity (PSR sort gate)": "low polyreactivity"},
      {"sequence": "QVQLVESGGGLVEAGGSLRLSCAASGSTFSVNAMGRYRQAPGKERELVAAISYRGGSTYYADSVKGRFTISRDNAKNTVYFQMNSLKPEDTAVYYCNAQRYRPGYWYDYWGQGTQVTVSS", "polyreactivity (PSR sort gate)": "high polyreactivity"},
      {"sequence": "QVQLVESGGGLVQAGGSLRLSCAASGSTFQIYAMGWYRQAPGKEWELVAAITSSSSTNYADSVKGRFTISRDNAKNTVYLQMNSLKPEDTAVYYCAADVSWRSNWYDYWGQGTQVTVSS", "polyreactivity (PSR sort gate)": "low polyreactivity"},
      {"sequence": "QVQLVESGGGLVQAGGSLRLSCAASGITFNVLAMGWYRQAPGKEREFVAAISTRDGTTYADSLKGRFTISRDNAKNTVYLQMNSLKPEDTAVYYCAAAYYYDGQQGDFDYWGQGTQVTVSS", "polyreactivity (PSR sort gate)": "low polyreactivity"},
      {"sequence": "QDQLVESGGGLVQAGGSLRLPCAASGYIFFFNAIGWYRQAPGKERELVAAITRRGVSTYYADSVKGRFTISRDNAKNTVYLQMNSLNPEDTAVYYCATDHNHLGYYYWGQGTQVTVSS", "polyreactivity (PSR sort gate)": "low polyreactivity"},
      {"sequence": "QVQLVESGGGLVQAGGSLRLSCADSGSTFWYNAMGWYRQAPGKERELVAAITWSASRTYYADSVKGRFTISRDNAKNTVYLQMNSLKPEDTAVYYCAKASPRYKYFTGDYWGQGTQVTVSS", "polyreactivity (PSR sort gate)": "high polyreactivity"}
    ]}
  ]
}
